Results reported in patent US20190023748A1 (NAVIGEN, published 2019).
Bridge positions count the residues as written; N and C are the ends. Square brackets hold non-standard residues; d marks the D form. Primed or numbered codes have the meaning given here. PEG4′ = not defined here

Key:
Test in all cases: cell-based or functional assay
[1] = molecular target: HIV-1 gp41 of isolate 3343IN (clade B) (HIV-1 isolate 3343IN)
[2] = molecular target: HIV-1 gp41 of isolate NI1046 (AE) (HIV-1 isolate NI1046)
[3] = molecular target: HIV-1 gp41 of isolate BX08 (clade B) (HIV-1 isolate BX08)
[4] = molecular target: HIV-1 gp41 of isolate CAM0015 (AG) (HIV-1 isolate CAM0015)
[5] = molecular target: HIV-1 gp41 of isolate CM235/GS020 (AE) (HIV-1 isolate CM235/GS020)
[6] = molecular target: HIV-1 gp41 of isolate Ba-L (clade B) (HIV-1 isolate Ba-L)
[7] = molecular target: HIV-1 gp41 of isolate TZA68 (clade C) (HIV-1 isolate TZA68)
[8] = molecular target: HIV-1 gp41 of isolate PBL286 (clade C) (HIV-1 isolate PBL286)
[9] = molecular target: HIV-1 gp41 of isolate US4/GS007 (clade B) (HIV-1 isolate US4/GS007)
[10] = molecular target: HIV-1 gp41 of isolate CAM1970LE (AG) (HIV-1 isolate CAM1970LE)
[11] = molecular target: HIV-1 gp41 of isolate 93RW024 (clade A) (HIV-1 isolate 93RW024)
[12] = molecular target: HIV-1 gp41 of isolate KNH1144 (clade A) (HIV-1 isolate KNH1144)
[13] = molecular target: HIV-1 gp41 of isolate DJ263/GS003 (AG) (HIV-1 isolate DJ263/GS003)
[14] = molecular target: HIV-1 gp41 of isolate J32228M4 (clade D) (HIV-1 isolate J32228M4)
[15] = molecular target: HIV-1 gp41 of isolate NP1251 (AE) (HIV-1 isolate NP1251)
[16] = molecular target: HIV-1 gp41 of isolate 56313 (clade C) (HIV-1 isolate 56313)
[17] = molecular target: HIV-1 gp41 of isolate CAM0014 (AG) (HIV-1 isolate CAM0014)
[18] = molecular target: HIV-1 gp41 of isolate KNH1088 (clade A) (HIV-1 isolate KNH1088)
[19] = molecular target: HIV-1 gp41 of isolate KER2018 (clade A) (HIV-1 isolate KER2018)
[20] = molecular target: HIV-1 gp41 of isolate CM240/GS022 (AE) (HIV-1 isolate CM240/GS022)
[21] = molecular target: HIV-1 gp41 of isolate TZA246 (clade C) (HIV-1 isolate TZA246)
[22] = molecular target: HIV-1 gp41 of isolate MN/H9 (clade B) (HIV-1 isolate MN/H9)
[23] = molecular target: HIV-1 gp41 of isolate CAM0008 (AG) (HIV-1 isolate CAM0008)
[24] = molecular target: HIV-1 gp41 of isolate 93UG065 (clade D) (HIV-1 isolate 93UG065)
[25] = molecular target: HIV-1 gp41 of isolate NP1695 (AE) (HIV-1 isolate NP1695)
[26] = molecular target: HIV-1 gp41 of isolate KSM4030 (clade A) (HIV-1 isolate KSM4030)
[27] = molecular target: HIV-1 gp41 of isolate NP1538 (clade B) (HIV-1 isolate NP1538)
[28] = molecular target: HIV-1 gp41 of isolate 20635-4 (clade C) (HIV-1 isolate 20635-4)
[29] = molecular target: HIV-1 gp41 of isolate TZBD9/11 (clade C) (HIV-1 isolate TZBD9/11)

B1: CPT31 (cholesterol-PIE12-2-trimer with PEG32 fourth-arm spacer) (peptide)
peptide: Ac-[dH][dP][dC][dD][dY][dP][dE][dW][dQ][dW][dL][dC][dE][dL]G[PEG4′]K-NH2
modifications: disulfide 3-12 (inferred); not fully specified (some residues); numbers in words are those of the source; also: PIE12-2 trimer on scaffold, fourth arm PEG28 + PEG4 with cholesteryl carbamate
1 nM inhibition [1]: 97.6% | 10 nM inhibition [1]: 99.1% | 1 nM inhibition [2]: 99.1% | 10 nM inhibition [2]: 99.7% | 1 nM inhibition [3]: 94.2% | 10 nM inhibition [3]: 99.5% | 1 nM inhibition [4]: 96% | 10 nM inhibition [4]: 97% | 1 nM inhibition [5]: 81.8% | 10 nM inhibition [5]: 98.7% | 1 nM inhibition [6]: 96.9% | 10 nM inhibition [6]: 99.8% | 1 nM inhibition [7]: 97.7% | 10 nM inhibition [7]: 99.7% | 1 nM inhibition [8]: 95.8% | 10 nM inhibition [8]: 99% | 1 nM inhibition [9]: 91.1% | 10 nM inhibition [9]: 98.7% | 1 nM inhibition [10]: 97.3% | 10 nM inhibition [10]: 98.5% | 1 nM inhibition [11]: 97% | 10 nM inhibition [11]: 99.3% | 1 nM inhibition [12]: 78.2% | 10 nM inhibition [12]: 80.6% | 1 nM inhibition [13]: 96.7% | 10 nM inhibition [13]: 99.2% | 1 nM inhibition [14]: 96.1% | 10 nM inhibition [14]: 98% | 1 nM inhibition [15]: 97% | 10 nM inhibition [15]: 98.4% | 1 nM inhibition [16]: 97.9% | 10 nM inhibition [16]: 99.3% | 1 nM inhibition [17]: 98.8% | 10 nM inhibition [17]: 99.5% | 1 nM inhibition [18]: 98.5% | 10 nM inhibition [18]: 99.6% | 1 nM inhibition [19]: 94.8% | 10 nM inhibition [19]: 97.5% | 1 nM inhibition [20]: 83.8% | 10 nM inhibition [20]: 95% | 1 nM inhibition [21]: 98.3% | 10 nM inhibition [21]: 98.4% | 1 nM inhibition [22]: 99.3% | 10 nM inhibition [22]: 100% | 1 nM inhibition [23]: 96.8% | 10 nM inhibition [23]: 99.7% | 1 nM inhibition [24]: 93.7% | 10 nM inhibition [24]: 94.4% | 1 nM inhibition [25]: 95.7% | 10 nM inhibition [25]: 97% | 1 nM inhibition [26]: 93.6% | 10 nM inhibition [26]: 95.6% | 1 nM inhibition [27]: 95% | 10 nM inhibition [27]: 99.4% | 1 nM inhibition [28]: 99% | 10 nM inhibition [28]: 99.6% | 1 nM inhibition [29]: 84.7% | 10 nM inhibition [29]: 85.4%
